The values that follow come from a protein production outcome set (Wang et al. 2014).
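Further: failed if final PepcDB status was selected cloned or expressed and not failed if soluble or beyond.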

This series can be described thus: label from the status in PepcDB records.
Regarding “MVTGYEALERHRGVRRPRRKLSRREKHAWKKAQKYELKLHKAHEKEERKLAKQAAKQAAREEKAAQKQAKKAERHKKKTKPPGSVKSSGKKGVAKKISSTNKDSRNKGKNITAQQSIPYREMGKDGICRVEDGYYSKTIRFYDINYQLAQNEDKNAIFENWCDFLNYFDSTIHFQLSFINHHSNMTEYEDVIRIKKQNDSFDDLRMEFAQMLRNQLAKGNNGLIRTKYITFGIEADNIREAKPKLERIETDILNNFKVFGVSAYPLNGAERLQIMYETFNQNVKVPFRFSYDDMLRTGLNTKDYIAPSSFLFKNGKDFQMGDTVGAVSYLQILAPELTDKMLAEFLEMDCNLLVNLHIQSIDQMKAIKLVKSKVTDINRMKIEEQKKAVRSGYDMDIIPSDLNTYGGEAKRLLEDLQSRNERMFLVTVVFLNTAKNKQELENVVFQTAGIAQKYNCALKRLDYQQEQGLMSSLPLGRNWIPIKRALTTTSTAIFVPFTTQELFMGGESIYYGLNALSNNLIMADRKKLKNPNGLILGTPGSGKSFAAKREITNVFIVTKDDIIICDPEGEYFPLVRAFNGQVIRISPTSHDYINPMDININYADDDDPLSLKSDFILSLCELVVGGKNGLEPVEKTIIDRCVRLVYQDYLADPVPEKMPILEDLYNLLRKQEEAESQRLATALEIYVNGSLKVFNHRTNVELNNRLVCFDIKDLGKQLKKLGMLIVQDQVWNRVTVNRSAHKSTRYYIDEFHLLLKEEQTAAYSVEIWKRFRKWGGIPTGITQNVKDLLASREIENIFENSDFILMLNQASGDRQILAKQLNISTHQLSYVTNSGEGEGLIFYGNTIIPFKDRFDNTLMLYALMSSKPEDVEKREKLGIKGRDDS”, the protein production entry is “failed”.

With “MTKYGVVGTGYFGAELARFMSKVEGAKITAIYDPVNAAPIAKELNCVATATMEALCTHPDVDCVIIASPNYLRKAPVIAAAKAGKHVFCEKPIALNYQDCKDMVDACKEAGVTFMAGHVMNFFHGVRHAKALIKAGEIGEVTQVHTKRNGFEDVQDEISWKKIRAKSGGHLYHHIHELDCTLFIMDETPSLVSMAAGNVAHKGEKFGDEDDVVLITLEFESGRFATLQWGSSFHYPEHYVLIEGTTGAILIDMQNTAGYLIKAGKKTHFLVHESQAEDDDRRNGNISSEMDGAIAYGKPGKRTPMWLSSIMKLEMQYLHDVINGLEPGEEFAKLLTGEAATNAIATADAATLSSNEGRKVKLTEILG”, the protein production result is listed as “failed”.

As for “SLKLFLFEFATCGERIEDSTAVEGLAMFKSAFDGFKNYYEITGFVRPEFSCLFTLPVDSMDSMEKYLEKSDAFLIIAPEDDFLLYTLTKKAEKYCENLGSSSRAIAVTSDKWELYKKLRGEVQVPQTSLRPLDCKFIIKPRTACAGEGIGFSDEVPDGHIAQEFIEGINLSVSLAVGEDVKCLSVNEQIINNFRYAGAVVPARISDEVKREVVEEAVRAVECVEGLNGYVGVDIVYSDQPYVIEINARLTTPVVAFSRAYGASVADLLAGGEVKHVRRQMVRKSKSAEKPYVSVGDYTLEIIDLD”, the protein production result is reported as “not failed”.

As to “MSKIFVNPSAIRAGLADLEMAEETVDLINRNIEDNQAHLQGEPIEVDNLPEDMGRLHLDDGKSPNPGEMAKVGEGKYREDFQMDEGEDPSLLFQSYLDNVGVQIVRQIRSGERFLKIWSQTVEEIISYVAVNFPNPPGKSSEDKSTQTTGRELKKETTPTPSQRESQSSKARMAAQTASGPPALEWSATNEEDDLSVEAEIAHQIAESFSKKYKFPSRSSGILLYNFEQLKMNLDDIVKEAKNVPGVTRLARDGSKLPLRCVLGWVALANSKKFQLLVESNKLSKIMQDDLNRYTSC”, the protein production entry is “not failed”.

For “SATQIPSTISILATSDIHGNVLNYDYATGKAPTNTQGLAKVSSYVNSVRASKPNVMLIDDGDTIQGTPLSYYYDKIDTTSEYPLMKIMGAMKYDTWTLGNHEFNYGLPTLNRVISDARKENINVLSANTYNSDNTNFVNPYYIKTFNINGKTVNVGILGLTTKCIPDWEDPSHYAGLHFNDLVDEAKLWVPRMKAAGANVVIVAAHSGEEGAADTIPENQIKAIATNVSGIDAIVAGHAHVTVNDTSLKNPNGKTVPVVEPNKWGTFVSQIDITLDNSGNASTINTQNVKMTDSIPEDPNIVNIIQPYQNKTLDYIST”, the protein production result is “failed”.

For “MEALDWLVIGVFFLALIGIIVWVVRQKQNDSADYFLGGRDATWLAIGASIFASNIGSEHLIGLAGAGASSGMAMAHWEIQGWMILILGWVFVPFYSRSMVYTMPEFLERRYNPQSRTILSVISLVSYVLTKVAVTVYAGGLVFQQVFGIKELWGIDFFWIAAIGLVVLTALYTIFGGMKSVLYTSVLQTPILLLGSLIILVLGFKELGGWDEMMRVCGAVTVNDYGDTMTNLIRSNDDANFPWLGALIGSAIIGFWYWCTDQFIVQRVLSGKNEKEARRGTIFGAYLKLLPVFLFLIPGMIAFALHQKYIGAGGEGFLPMLANGTANADAAFPTLVAKLLPAGVKGLVVCGILAALMSSLASLFNSSAMLFTIDFYKRFRPETPEKKLVGIGQIATVVIVILGILWIPIMRSVGDVLYTYLQDVQSVLAPGIAAAFLLGICWKRTSAQGGMWGLIAGMIIGLTRLGAKVYYSNAGEVADSTFKYLFYDMNWLFFCGWMFLFCIIVVIVVSLATEAPTAEKIQGLVFGTATKEQKAATRASWDHWDIIHTVIILAITGAFYWYFW”, the protein production result is on record as “failed”.

Consider “KNTGSKHNFLNHGLPLNLAIKPYLALKGSVDFPAENGVQNTESTQEKREIGDEENSAKFPIGRRDFDMLRCMLGRVYRPCWQV”, for which the protein production entry was “failed”.

Consider “MAEKQKHDGRVKIGHYVLGDTLGVGTFGKVKIGEHQLTGHKVAVKILNRQKIRSLDVVGKIKREIQNLKLFRHPHIIKLYQVISTPTDFFMVMEYVSGGELFDYICKHGRVEEMEARRLFQQILSAVDYCHRHMVVHRDLKPENVLLDAHMNAKIADFGLSNMMSDGEFLRTSCGSPNYAAPEVISGRLYAGPEVDIWSCGVILYALLCGTLPFDDEHVPTLFKKIRGGVFYIPEYLNRSVATLLMHMLQVDPLKRATIKDIREHEWFKQDLPSYLFPEDPSYDANVIDDEAVKEVCEKFECTESEVMNSLYSGDPQDQLAVAYHLIIDNRRIMNQASEFYLASSPPSGSFMDDSAMHIPPGLKPHPERMPPLIADSPKARCPLDALNTTKPKSLAVKKAKWHLGIRSQSKPYDIMAEVYRAMKQLDFEWKVVNAYHLRVRRKNPVTGNYVKMSLQLYLVDNRSYLLDFKSIDDEVVEQRSGSSTPQRSCSAAGLHRPRSSFDSTTAESHSLSGSLTGSLTGSTLSSVSPRLGSHTMDFFEMCASLITTLAR”, for which the protein production result was “failed”.

Turning to “MGSRTHARKDASSEALQAPRLRTLLLTDLCDSTALVERIGDNAAAALFREHDRLVVKLQQHWRGRLIDRSDGLLLLFDRPIDGLGFALDYARGLKTMGDAHALTLCARQGLHVGEVLTWRNSDEAISIGAKPLEVEGLAKPTAARLMSMARPGQILLSAVAESLTHRAARELGNRADRLLWKSHGRWRFKGMPTPMEIYEVGEVGLTPLRMPKNSAKAWRDVPLWRRPAALVAEVGVVLAVGIAAWFFIRPQPAIAFASRDWVVVGDVRNLTGNTVLDGALEQALRISLEQSRYVNVLSDMKVRDTVTRMKRDPNTIVLDRSVASEVALRDGASAVLLPTVAEVGGKLRFSVELVDPRTQTTVYSEFVQGDGLPSALSSVDQVTRKLRQGLGEMVASIDKNSVPLPAVTTSSLDALRAYALGVEATAKGRWREGLELFDRAVGIDPTFALAYLGAARIKVAVSDRNGALPYLDNAVRFRQRLPARDQLYLDAWIAELRAVDTALPLWRTLASLYPDNFAGAANTSWHLFVANRFADALPYAQAADVVQDPLRSIASDRIGRILMAQGKVEAALQRFENSSDGDRAGPLRRQADALAVLGRYAEEQRTLDRIVDNGYANDDVVPLIDRTSIALDQANWANANAAVAQALERSKHTDDFSYRQFLVIGATTAAITGETASVGPGMSSTFEALVGAIKANGPAEPNLQDDAAMVLSLVSQAQRNGDDQFTARALSAIKPALAHETPVLADLRAIVEAQHLALSGDRVAAIARLPPGPDDLLQMRVTLYTLLHDSGRHAEALQQARWLSLQRGRAYIEANASQTLQPLNVAHTRLARLWTAESLYALGRTQEAREQAQAFVRAWPASHLPAYLRSRVERILSDSKAKITV”, the protein production entry is reported as “failed”.

Consider “VIKKEGPGWRIIFDSSRDNFSTLIGGETWAIELDKSEWKILVEVVMELCDQYKLVKEQLMGDEDITLELERRPWLAILNGDQYGWNLRLILSASGLFNRGAEVYWPRHVTNNVVNAMRSMWDSDYL”, for which the protein production entry is “not failed”.

Regarding “MFLTVKLLLGQRCSLKVSGQESVATLKRLVSRRLKVPEEQQHLLFRGQLLEDDKHLSDYCIGPNASINVIMQPLEKMAL”, the protein production entry is reported as “failed”.

Take “RNGLDLTTYEGQVEGVEIASDPNLKIVGMMTHFPNEGLDEIRRKVDRFKVETKWLMDSAGLKRKDITLHVANSYITLNLPEAHLDMVRPGGMLYGDYPATLPYERIVSFKTRIASLHFFPAGSTIGYGSTKVLERDSILANLPIGYSDGFARSLSNKADVLINGQRARVMGKASMNTTMVDVTDIIGVQANDEVVVFGRQGFEEITAEETEEKSGRILPEHYTIWGATNPRVYR”: the protein production entry is given as “failed”.

For the sequence “MNIRRARPDDLMNMQHCNLLCLPENYQMKYYFYHGLSWPQLSYIAEDEDGKIVGYVLAKMEEDPDDVPHGHITSLAVKRSHRRLGLAQKLMDQASRAMIENFSAKYVSLHVRKSNRAALHLYSNTLNFQVSEVEPKYYADGEDAYAMKRDLSQMADELRRQLVLKKGRYVVLGSKENQGSTLPGSEEASQQENLAGGDSGSDGKDSTDVQDSLQTLGSAS”, the protein production entry is on record as “failed”.

Take “MELLKLNRSVQGTGPGPGASLCRPGAPLLNSSSVGNLSCEPPRIRGAGTRELELAIRITLYAVIFLMSVGGNMLIIVVLGLSRRLRTVTNAFLLSLAVSDLLLAVACMPFTLLPNLMGTFIFGTVICKAVSYLMGVSVSVSTLSLVAIALERYSAICRPLQARVWQTRSHAARVIVATWLLSGLLMVPYPVYTVVQPVGPRVLQCVHRWPSARVRQTWSVLLLLLLFFIPGVVMAVAYGLISRELYLGLRFDGDSDSDSQSRVRNQGGLPGGAGPREQNLGEADVWRATGPAGVGGTEMKVRVRRKLEMELSWERRSGGDWAGDWGDSPFSLTAHPLCSGAVHQNGRCRPETGAVGEDSDGCYVQLPRSRPALELTALTAPGPGSGSRPTQAKLLAKKRVVRMLLVIVVLFFLCWLPVYSANTWRAFDGPGAHRALSGAPISFIHLLSYASACVNPLVYCFMHRRFRQACLETCARCCPRPPRARPRALPDEDPPTPSIASLSRLSYTTISTLGPG”: the protein production entry is “failed”.

For “MINDIKILGVGGSPRKNGNTDVLLDSFLKGAESAGVETKKVLLRDYSIEPCIGCERCRKTGTCTRFHDGMSLLYPEIEAAKGLTLGSPTYNYNVTALMKAFIDRLYPYYNFTNVRPRRYSSKLAGQGRKAIVFSVCEQLEIEEMGFTLGALGMPLEALGYEIVEKFPVTGYFDRGAVSRDEELLRKTFEAGKKMAEALHLEHHHHHH”, the protein production result is “failed”.

As for “MYKSPLTLLTLLTICFGFFDLSSALYGSSSPVVQLTASNFKSKVLNSNGVVLVEFFAPWCGHCKALTPTWEKVANILKGVATVAAIDADAHQSAAQDYGIKGFPTIKVFVPGKAPIDYQGARDAKSIANFAYKQIKGLLSDRLEGKSKPTGGGSKEKKSEPSASVELNASNFDDLVIESNELWIVEFFAPWCGHCKKLAPEWKRAAKNLQGKVKLGHVNCDVEQSIMSRFKVQGFPTILVFGPDKSSPYPYEGARSASAIESFASELVESSAGPVEVTELTGPDVMEKKCGSAAICFISFLPDILDSKAEGRNKYLEMLLSVAEKFKKQPYSFMWVAAVTQMDLEKRVNVGGYGYPAMVAMNVKKGVYAPLKSAFELQHLLEFVKDAGTGGKGNVPMNGTPEIVKTKEWDGKDGELIEEDEFSLDELMGGDDAVGSKDEL”, the protein production entry was “failed”.

For “MAASTDIAGLEESFRKFAIHGDPKASGQEMNGKNWAKLCKDCKVADGKAVTGTDVDIVFSKVKAKSARVINYEEFKKALEELATKRFKGKSKEEAFDAICQLIAGKEPANIGVTKAKTGGAVDRLTDTSKYTGSHKER”, the protein production result is on record as “not failed”.
